{
  "source": "patent US20200354474A1",
  "about": "(BROWN UNIVERSITY, published 2020)",
  "binders": {"B1": {"name": "FRG monoclonal antibody (antibody, V domains shown)", "VH": "QIQLVQSGPELKKPGETVKISCKASGYTFTNYGMNWVKQAPGKGLKWMGWINTYTGEPTYADDFKGRFAFSLETSASTAYLQINNLRNEDMSTYFCARLGYGKFYVMDYWGQGTSVTVSS", "VL": "DVVMTQTPLSLPVSLGDQASISCRSSQSLVHSNGNTYLHWYLQKPGQSPKLLIYKVSNRFSGVPDRFSGSGSGTDFTLKISRVEAEDLGVYFCSQSTHVTWTFGGGTKLEIK", "notes": "also called FRG mAb; anti-Chi3l1-FRG"}},
  "key": {"[1]": {"biological_target": "T1, human Chi3l1 (chitinase 3-like-1) (human, UniProt P36222 22-383)", "T1 construct": "also called YKL-40; recombinant (r) human Chi3l1", "T1 sequence (P36222 22-383 limits assumed)": "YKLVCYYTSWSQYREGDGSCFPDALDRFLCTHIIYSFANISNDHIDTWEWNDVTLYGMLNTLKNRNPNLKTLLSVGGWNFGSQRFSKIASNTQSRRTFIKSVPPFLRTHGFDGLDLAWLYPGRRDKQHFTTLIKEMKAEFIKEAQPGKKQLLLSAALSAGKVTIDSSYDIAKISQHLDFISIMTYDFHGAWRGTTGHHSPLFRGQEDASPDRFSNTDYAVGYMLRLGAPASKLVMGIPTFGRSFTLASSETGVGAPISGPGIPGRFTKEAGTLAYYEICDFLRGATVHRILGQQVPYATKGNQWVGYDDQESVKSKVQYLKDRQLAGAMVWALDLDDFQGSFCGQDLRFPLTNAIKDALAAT", "assay": "Western blot and ELISA, denaturing and non-denaturing conditions"}, "[2]": {"biological_target": "T2, mouse Chi3l1 (chitinase 3-like-1) (mouse, UniProt Q61362 30-389, limits assumed)", "T2 construct": "Recombinant mouse Chi3l1; also called murine Chi3l1; Chil1 (printed 'Chill')", "T2 sequence (Q61362 30-389 limits assumed)": "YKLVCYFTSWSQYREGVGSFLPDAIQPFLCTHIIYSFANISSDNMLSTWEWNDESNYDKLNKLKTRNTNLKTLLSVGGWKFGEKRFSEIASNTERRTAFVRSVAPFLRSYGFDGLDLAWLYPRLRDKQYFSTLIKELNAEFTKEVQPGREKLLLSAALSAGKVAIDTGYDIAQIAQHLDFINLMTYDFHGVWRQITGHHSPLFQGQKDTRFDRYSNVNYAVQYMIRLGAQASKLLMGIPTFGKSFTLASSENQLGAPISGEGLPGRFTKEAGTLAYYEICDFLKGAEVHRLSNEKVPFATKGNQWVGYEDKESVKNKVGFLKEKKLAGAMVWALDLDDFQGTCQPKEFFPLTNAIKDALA", "assay": "Western blot and ELISA, denaturing and non-denaturing conditions"}},
  "data": [
    {"binder": "B1", "values": [
      {"measurement": "binding result", "setting": "[1]", "result": "binds"},
      {"measurement": "binding result", "setting": "[2]", "result": "binds"}
    ]}
  ]
}
